± gives the uncertainty stated by the source.
Assay: amyloid nucleation score (Sup35N fusion, yeast selection) (log enrichment); library NNK3; higher = more nucleation; inactive = no reads after selection
Method in brief: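 Output and input plasmid inserts were sequenced by Illumina after psi-negative yeast carrying Sup35N fused to peptides of 20 random codons had been induced 24 hours with 100 μM copper sulfate and grown 7 days at 30°C on medium lacking adenine and uracil. The nucleation score is the DiMSum log enrichment of output over input reads, centred on the mode score of non-aggregating sequences. Sequences with under 100 input reads were excluded.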

Q: With MCWLVWLSPRSNDCVDHRFD as the substance, how does the amyloid nucleation score read?
A: -0.163 ± 0.46

Q: For MCYFEYNDVNWRVLLLYLCK, which amyloid nucleation score is on record?
A: inactive

Q: For MDGGASSREVAWWSLSNRGA, which amyloid nucleation score is on record?
A: inactive

Q: With MDLITFGKKMREAQARILLV as the substance, how does the amyloid nucleation score read?
A: inactive

Q: Which amyloid nucleation score does the source give for MDRYNEPLSNWTKSSEIR here?
A: inactive

Q: Which amyloid nucleation score does the source give for MDSPTGLALDG here?
A: inactive

Q: Which amyloid nucleation score does the source give for MEGDLSVADSYGDQ here?
A: inactive

Q: With MFAADDLIPTKIVGSCF as the substance, how does the amyloid nucleation score read?
A: inactive

Q: Which amyloid nucleation score does the source give for MFFVRNFCQYVSRRC here?
A: 1.83 ± 0.088

Q: For MFGVVTGLTLGSSTFHA, which amyloid nucleation score is on record?
A: inactive

Q: Which amyloid nucleation score does the source give for MFIMVRRRLT here?
A: inactive

Q: Which amyloid nucleation score does the source give for MFITRVLR here?
A: inactive

Q: For MFMYCPCSLEDICLRFPTPV, which amyloid nucleation score is on record?
A: inactive

Q: With MFRLVSGTEGLRLREVWC as the substance, how does the amyloid nucleation score read?
A: -0.469 ± 1.1

Q: For MFRTRTNNHDSVGRYLVTMN, which amyloid nucleation score is on record?
A: inactive

Q: Which amyloid nucleation score does the source give for MFTTSCWILKER here?
A: 0.248 ± 0.23

Q: With MFVYR as the substance, how does the amyloid nucleation score read?
A: inactive

Q: Which amyloid nucleation score does the source give for MFYMIFIVYQSWLKNASYLC here?
A: inactive

Q: With MGAANSWETDKF as the substance, how does the amyloid nucleation score read?
A: inactive

Q: With MGADGSLRALKRARS as the substance, how does the amyloid nucleation score read?
A: inactive

Q: Which amyloid nucleation score does the source give for MGDSVFRCLCNTYALLFPPV here?
A: inactive

Q: Which amyloid nucleation score does the source give for MGFASSLSWSL here?
A: inactive

Q: With MGMVFHME as the substance, how does the amyloid nucleation score read?
A: inactive

Q: Which amyloid nucleation score does the source give for MGSYM here?
A: inactive

Q: Which amyloid nucleation score does the source give for MGVYAINVRYSAERVMLVAP here?
A: inactive

Q: For MGYLMRALGHCSY, which amyloid nucleation score is on record?
A: inactive

Q: With MHFRWQTFYSDN as the substance, how does the amyloid nucleation score read?
A: inactive

Q: For MHNHMYISKEMLYNERTLSI, which amyloid nucleation score is on record?
A: inactive

Q: With MIACNSRRCI as the substance, how does the amyloid nucleation score read?
A: inactive

Q: With MICAGVMIGYALFYFQIWSC as the substance, how does the amyloid nucleation score read?
A: inactive

Q: With MIFSRAISDGSFLTVFV as the substance, how does the amyloid nucleation score read?
A: -0.32 ± 0.8

Q: With MIGFYLILVGSHIRMYTGS as the substance, how does the amyloid nucleation score read?
A: inactive

Q: For MIIPFLLLTMLITKSWLLIW, which amyloid nucleation score is on record?
A: inactive

Q: For MIIYVKLPYRCLFFERHSDT, which amyloid nucleation score is on record?
A: inactive

Q: For MIKPIIHFSGG, which amyloid nucleation score is on record?
A: inactive

Q: For MILCCNRRLFGRRSLANLCW, which amyloid nucleation score is on record?
A: inactive

Q: With MILFKIEELHCQHVSHCG as the substance, how does the amyloid nucleation score read?
A: inactive

Q: With MILNWARQRGIECMAYSRVW as the substance, how does the amyloid nucleation score read?
A: inactive

Q: For MIMINVISQCKCAGWGGNRA, which amyloid nucleation score is on record?
A: 3.36 ± 0.053

Q: Which amyloid nucleation score does the source give for MIMTMTAGFFLELLW here?
A: inactive

Q: With MIRLNNRARRNLLRLRVDRQ as the substance, how does the amyloid nucleation score read?
A: inactive

Q: Which amyloid nucleation score does the source give for MKRCTVFEPLPKRRLVMYLE here?
A: inactive

Q: Which amyloid nucleation score does the source give for MKVNKLRTMPCNINWQFCLP here?
A: 0.819 ± 0.11

Q: With MLCRPTGRGLDGQCERLTVR as the substance, how does the amyloid nucleation score read?
A: inactive

Q: With MLDSRYGKMCRGEW as the substance, how does the amyloid nucleation score read?
A: inactive

Q: Which amyloid nucleation score does the source give for MLKSTKKSRGLYMVSYTFTG here?
A: inactive

Q: With MLLSVRRGSLWESRPRTWLM as the substance, how does the amyloid nucleation score read?
A: 0.535 ± 0.22

Q: Which amyloid nucleation score does the source give for MLLVHNRTDIFLWIDLYNSL here?
A: inactive

Q: Which amyloid nucleation score does the source give for MLPFTLMQPNVLFWMIDWED here?
A: inactive

Q: Which amyloid nucleation score does the source give for MLQWVESLGGICITRSVLIL here?
A: inactive

Q: For MLSISFLYFATTVGVDVTLG, which amyloid nucleation score is on record?
A: inactive

Q: With MMAFTVFISEQDYSGIIFYE as the substance, how does the amyloid nucleation score read?
A: inactive

Q: For MMDSWYVVVRYLSTLYNCDI, which amyloid nucleation score is on record?
A: inactive

Q: Which amyloid nucleation score does the source give for MMGSVQLVHSIEYSCMHGTS here?
A: inactive

Q: For MMLFNSMWDIFCLMDGLH, which amyloid nucleation score is on record?
A: inactive

Q: With MMLFNVPKICHRLWLNLHRH as the substance, how does the amyloid nucleation score read?
A: inactive

Q: With MMLLGVRVED as the substance, how does the amyloid nucleation score read?
A: inactive

Q: For MMYNVMVSSRLMRLCFSRRV, which amyloid nucleation score is on record?
A: inactive

Q: For MMYRSRFGLKMLPGLQPAIA, which amyloid nucleation score is on record?
A: inactive

Q: For MNCDDAVDWCFII, which amyloid nucleation score is on record?
A: inactive

Q: Which amyloid nucleation score does the source give for MNLDVWSFMSMFNSFRVWVQ here?
A: inactive

Q: With MNMGYFRFNL as the substance, how does the amyloid nucleation score read?
A: inactive

Q: With MNRKVVANSGDRDGIVRTSS as the substance, how does the amyloid nucleation score read?
A: 0.278 ± 0.43

Q: With MNTSDSARKSRYRARG as the substance, how does the amyloid nucleation score read?
A: inactive

Q: For MPGLAVFGCPRRCCGFRGLV, which amyloid nucleation score is on record?
A: inactive

Q: With MPLYCNKMGCPLGKGMHMCH as the substance, how does the amyloid nucleation score read?
A: inactive

Q: Which amyloid nucleation score does the source give for MPPLNNCLDPYFLVCCNMVY here?
A: inactive

Q: Which amyloid nucleation score does the source give for MPTTHASLSSSFLG here?
A: inactive

Q: Which amyloid nucleation score does the source give for MPYMW here?
A: 0.73 ± 0.29

Q: For MPYVSKVYHYRYT, which amyloid nucleation score is on record?
A: inactive

Q: With MRAIMWFINKDLLLTCGDDS as the substance, how does the amyloid nucleation score read?
A: inactive

Q: For MRCILTLFSTDIICVLSCKC, which amyloid nucleation score is on record?
A: inactive

Q: For MRFADFCRGYFRRGSYPLGF, which amyloid nucleation score is on record?
A: inactive

Q: Which amyloid nucleation score does the source give for MRFLWCNVCL here?
A: 2.07 ± 0.078

Q: For MRGINRIDLLPG, which amyloid nucleation score is on record?
A: inactive

Q: Which amyloid nucleation score does the source give for MRGRFLASPGWFTFRIFFVF here?
A: 0.836 ± 0.27

Q: With MRISRAVHELWILNFVTKES as the substance, how does the amyloid nucleation score read?
A: -0.52 ± 1.3

Q: Which amyloid nucleation score does the source give for MRMHALAVNIGCCYTCVVVT here?
A: 0.866 ± 0.099
